Test results published in the domain aggregation screens of Martell et al. (2025).

Test: soluble fraction after stress (log2 fold change); higher = more stays soluble; pooled small domains, quantitative proteomics
Details: stress: pH 4
Outline: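 Values are on a log2 scale, where higher means more of the domain stayed soluble after pH 4 stress. They are fold changes in the soluble amount of each domain from pooled custom libraries, measured by high-throughput quantitative proteomics. The fold change is taken to reflect aggregation propensity.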

| Sequence | soluble fraction (log2) |
| --- | --- |
| HMTEEEEFEKGFEILVNLSHFNRFSVYKEDEYVIVRIADYDFNEYFKVKKSDVGRIAEFLNENIT | -1.86 |
| HMTEELLNQRKETMLALLNDPTYVPMKLKELAMLLNLSRDQRDELREVMESLEQDGKVILTKRGKYKIP | -0.255 |
| HMTEELQDMESRIIEAAKRVFVRKGYEATKMSDIALEVGLGRTALHYYFRTKEMLFDAIFGRLMGV | -0.594 |
| HMTEEPISDGIKKLVEEWENIEGNLIMIFHGIQKHYGYVPRNVAKYVSEAIDVPLTRIYEILTFYNYFTM | -1.43 |
| HMTEEYAVLWRVARQTLKPEAFDVLWMKYREQLSIAEIAGIMNRSETSVKVMLHRARKNLGTALESS | -0.262 |
| HMTEKIEWYKEVLELEPNSKVFFPLARMLAEEQRFDEAVAVLEHGLERHGEFLEARLFFIELLHET | -2.04 |
| HMTEKQYIYSIGDRVNIGTDEFEIVNINEKEVSIADVTFPMLVKQISYEEFDRKVKENPFNDHLII | -1.25 |
| HMTEKSTRSVPQEHEGKRLDVAAALLFPVYSRSELARRIDAGYLLLNGKGSTPKTKVHELDLIELLEV | -1.65 |
| HMTELKKTAVDTWVKDLGTEQALAKLDTLAVVKLRRLAREYKAFGIAGRAISKADKGMLLAEFRAYYEN | 0.171 |
| HMTETSKLTDAKQLLESILSSGEVSYKDIISAAEEYEIGKRTLMSAKALLSIESIKKTDGWYWTLPH | -0.0778 |
| HMTEVPSLSSLKIGDLIFYRNNKGAIAHSAIITSFYNGRPFISQHTFNALNITYVKDWASKMHFIKIW | -0.934 |
| HMTEWDDATVKDAVEYFMSVNGRVPTVTDFKKENGLPSHPVIKQRYKINLHEWLNKNFPTYY | -1.19 |
| HMTFEPVYDENSRILILGTFPSVKSREQQFYYGHPQNRFWKLLAALTGWKVPKTISEKKELLLQNGIA | -0.665 |
| HMTFFDDLLYQAKAAVDNDPSIKPSLHNRAIIEILYQQGVFNMKNAVEHVAELLEISKNTVYLHLRSVKG | -0.976 |
| HMTFGEMLQYTNRLKEILESNAPQSIKDRRLANLMTDLEQAYGIPILRDQEFEKENPFLMQLYRTIS | -1.36 |
| HMTFKDIMENYTISRIENTINSAVVFLDEINAYITIDKTQLPSNLRYDTDSKIMASQIPDDAKIKYFMIYW | -1.61 |
| HMTFPIDINRADTEQLTALPGIGEVLAKRIIAYREENGSFLSTDELKNVEGIGEKRLEAIVDLITIG | -0.935 |
| HMTFSDKIRELRKQKGVSQAVVAEYLGITKQAYSLYETGKREPDFDSLLKLAEYFGTDTDSLLY | -0.379 |
| HMTGEEVLIMLGEKMKLIRNYNGYSQRQIAEILKIERSTYASYETGRNRPDIFAVQRFAKIFNVSVDYIL | -0.877 |
| HMTGELEVTAAGLSPEKLLNLAAKNHITLSNVKRLSYTQLSFRIGPADYNRLKKLLPEGRYKLNVGSS | -0.0957 |
| HMTGESIPFSKFLSEVDSGRVINVEIQGNNISGLLSDGNKFKTYSPNYPNLVEILSEKEVSIVATPLE | -0.166 |
| HMTGGLTQEQISQLRMLTPQQIEQLRQLQPQQVEMLRQLRPEQVMLLTQLEPQQIMAFMRLEPSVIMQL | -0.657 |
| HMTGGMVTYIIEKGEGFFSLERKFGLSENELIKLNPSLKSGLKSEMQINIPKENYDRYVASS | 0.206 |
| HMTGIESVKPSSDFTVEGNRIVAGDAEVEVYDLAGRKVNNNNLTTGVYIAKIAGSAESVKVFV | 0.22 |
| HMTGIQDVPALETRRVGNTFFFDRATDVQVYDLQGRLLQQARKVTSVSIGHLQQGVYVLTDGRASVKVQ | -0.7 |
| HMTGIQLNDRERAILQHLSDGLTTKAIAERIFLREDTVKWYRKNLLARFEQPIVAALVKWAVLEGLV | 0.409 |
| HMTGIVVVDVVGQVGRPGLVSLPAGSRVADAITAAGGATPEADVSLLNQARLVIDGEQIRVPRPGEVIAA | 0.22 |
| HMTGKVSHGERKSVLVSLAGSMRARGMSIDAVRAGLYADNEKRFDPPLDERDIEDVLNSAKKWGDP | -0.0814 |
